Assay results reported in US20030119725A1 (ACTIVE MOTIF, published 2003).
*1 amine or outer side, *2 acyl side, *3 side chain or, on linkers, in order; H or OH if unused. Cysteamide = C(CS[*:3])N[*:1]

Tests used:
[1] = target: T1, Pep-A, 32-mer peptide derived from HIV-1 reverse transcriptase; assay: intrinsic Trp fluorescence of Pep-2 on binding
T1 construct: also called peptide A

[2] = target: T2, Pep-B, 51-mer peptide derived from human Cdc25C dual-specificity phosphatase; assay: intrinsic Trp fluorescence of Pep-2 on binding
T2 construct: also called peptide B

[3] = target: T3, 119 kDa b-galactosidase (β-gal) (UniProt P00722 2-1024 = β-galactosidase); assay: intrinsic Trp fluorescence of Pep-2 on binding
T3 construct: also called beta-gal; β-galactosidase
T3 sequence (P00722 2-1024 limits assumed): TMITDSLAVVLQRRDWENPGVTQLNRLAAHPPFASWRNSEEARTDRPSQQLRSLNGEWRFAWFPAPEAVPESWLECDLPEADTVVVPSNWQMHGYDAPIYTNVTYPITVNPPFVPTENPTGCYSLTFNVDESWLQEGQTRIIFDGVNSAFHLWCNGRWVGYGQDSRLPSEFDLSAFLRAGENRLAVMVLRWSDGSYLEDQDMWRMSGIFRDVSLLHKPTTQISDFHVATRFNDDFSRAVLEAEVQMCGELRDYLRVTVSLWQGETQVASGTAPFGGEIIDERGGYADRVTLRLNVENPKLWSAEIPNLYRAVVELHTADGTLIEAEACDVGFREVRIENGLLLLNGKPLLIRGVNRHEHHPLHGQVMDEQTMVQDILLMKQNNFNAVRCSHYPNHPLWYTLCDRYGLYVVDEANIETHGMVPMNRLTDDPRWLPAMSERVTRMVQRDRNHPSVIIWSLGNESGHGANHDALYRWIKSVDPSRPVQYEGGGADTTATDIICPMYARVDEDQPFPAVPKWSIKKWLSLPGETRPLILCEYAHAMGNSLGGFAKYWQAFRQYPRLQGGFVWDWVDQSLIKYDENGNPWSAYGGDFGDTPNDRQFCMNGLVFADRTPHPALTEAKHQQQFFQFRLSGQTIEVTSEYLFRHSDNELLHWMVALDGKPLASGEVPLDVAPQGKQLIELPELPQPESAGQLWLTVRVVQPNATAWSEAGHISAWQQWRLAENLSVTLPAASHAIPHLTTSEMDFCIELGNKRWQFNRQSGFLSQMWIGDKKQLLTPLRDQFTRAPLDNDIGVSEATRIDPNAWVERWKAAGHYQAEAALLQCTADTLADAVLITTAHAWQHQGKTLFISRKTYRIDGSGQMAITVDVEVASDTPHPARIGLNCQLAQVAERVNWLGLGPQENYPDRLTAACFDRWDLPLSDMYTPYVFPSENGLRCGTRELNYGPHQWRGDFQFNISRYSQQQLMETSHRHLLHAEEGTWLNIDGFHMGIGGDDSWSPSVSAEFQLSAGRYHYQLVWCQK

[4] = target: T1, Pep-A, 32-mer peptide derived from …; assay: intrinsic Trp fluorescence titration of 1 µM Pep-2
[5] = target: T2, Pep-B, 51-mer peptide derived from …; assay: intrinsic Trp fluorescence titration of 1 µM Pep-2
[6] = target: T3, 119 kDa b-galactosidase (β-gal); assay: intrinsic Trp fluorescence titration of 1 µM Pep-2
[7] = target: the molecule itself; assay: intrinsic tryptophan fluorescence against peptide concentration

Row | Binder | blue shift of the fluorescence emission maximum [1] [nm] | blue shift of the fluorescence emission maximum [2] [nm] | blue shift of the fluorescence emission maximum [3] [nm] | Kd [4] [nM] | concentration of partner at saturation [4] [nM] | saturating quenching of intrinsic tryptophan fluorescence [4] [%] | Kd [5] [nM] | concentration of partner at saturation [5] [nM] | saturating quenching of intrinsic tryptophan fluorescence [5] [%] | Kd [6] [nM] | concentration of partner at saturation [6] [nM] | saturating quenching of intrinsic tryptophan fluorescence [6] [%] | binding result [7]
1 | Ac-KETWWETWWTEWSQPKKKRKV-Cysteamide (Synthetic 21-residue peptide: Trp-rich hydrophobic domain, Ser-Gln-Pro spacer, and a Lys-rich domain derived from the SV40 large T antigen NLS; also called Pep-2-cya; peptide vector) [Pep-2 (KETWWETWWTEWSQPKKKRKV-cya)] | 10 | 10 | 10 | ~120 | ~200 | 36 | ~120 | ~200 | 36 | ~120 | ~50 | 65 | no binding (tested: up to a millimolar concentration)
2 | GALFLGFLGAAGSTMGAWSQPKSKRKV [MPG peptide vector] |  |  |  |  |  |  |  |  |  |  |  |  | no binding
